Target: Avr2 elicitor molecule of Cladosporium fulvum (Cladosporium fulvum)

Binder	resistance of progeny of resistant transformants to matched races of C. fulvum carrying or lacking Avr-2 (race 5,9 compared with race 2,5,9)
Cf-2.1 protein (polypeptide encoded by the tomato Cf-2.1 gene) (receptor) STEEATALLKWKATFKNQNNSFLASWIPSSNACKDWYGVVCFNGRVNTLNITNASVIGTLYAFPFSSLPSLENLDLSKNNIYGTIPPEIGNLTNLVYLDLNNNQISGTIPPQIGLLAKLQIIRIFHNQLNGFIPKEIGYLRSLTKLSLGINFLSGSIPASVGNLNNLSFLYLYNNQLSGSIPEEISYLRSLTELDLSDNALNGSIPASLGNMNNLSFLFLYGNQLSGSIPEEICYLRSLTYLDLSENALNGSIPASLGNLNNLSFLFLYGNQLSGSIPEEIGYLRSLNVLGLSENALNGSIPASLGNLKNLSRLNLVNNQLSGSIPASLGNLNNLSMLYLYNNQLSGSIPASLGNLNNLSMLYLYNNQLSGSIPASLGNLNNLSRLYLYNNQLSGSIPEEIGYLSSLTYLDLSNNSINGFIPASFGNMSNLAFLFLYENQLASSVPEEIGYLRSLNVLDLSENALNGSIPASFGNLNNLSRLNLVNNQLSGSIPEEIGYLRSLNVLDLSENALNGSIPASFGNLNNLSRLNLVNNQLSGSIPEEIGYLRSLNDLGLSENALNGSIPASLGNLNNLSMLYLYNNQLSGSIPEEIGYLSSLTYLSLGNNSLNGLIPASFANMRNLQALILNDNNLIGEIPSSVCNLTSLEVLYMPRNNLKGKVPQCLGNISNLQVLSMSSNSFSGELPSSISNLTSLQILDFGRNNLEGAIPQCFGNISSLEVFDMQNNKLSGTLPTNFSIGCSLISLNLHGNELEDEIPRSLDNCKKLQVLDLGDNQLNDTFPMWLGTLPELRVLRLTSNKLHGPIRSSRAEIMFPDLRIIDLSRNAFSQDLPTSLFEHLKGMRTVDKTMEEPSYESYYDDSVVVVTKGLELEIVRILSLYTVIDLSSNKFEGHIPSVLGDLIAIRILNVSHNALQGYIPSSLGSLSILESLDLSFNQLSGEIPQQLASLTFLEFLNLSHNYLQGCIPQGPQFRTFESNSYEGNDGLRGYPVSKGCGKDPVSEKNYTVSALEDQESNSEFFNDFWKAALMGYGSGLCIGISMIYILISTGNLRWLARIIEKLEHKIIMQRRKKQRGQRNYRRRNNHF	75%
Cf-2.2 protein (polypeptide encoded by the tomato Cf-2.2 gene) (receptor) STEEATALLKWKATFKNQNNSFLASWIPSSNACKDWYGVVCFNGRVNTLNITNASVIGTLYAFPFSSLPSLENLDLSKNNIYGTIPPEIGNLTNLVYLDLNNNQISGTIPPQIGLLAKLQIIRIFHNQLNGFIPKEIGYLRSLTKLSLGINFLSGSIPASVGNLNNLSFLYLYNNQLSGSIPEEISYLRSLTELDLSDNALNGSIPASLGNMNNLSFLFLYGNQLSGSIPEEICYLRSLTYLDLSENALNGSIPASLGNLNNLSFLFLYGNQLSGSIPEEIGYLRSLNVLGLSENALNGSIPASLGNLKNLSRLNLVNNQLSGSIPASLGNLNNLSMLYLYNNQLSGSIPASLGNLNNLSMLYLYNNQLSGSIPASLGNLNNLSRLYLYNNQLSGSIPEEIGYLSSLTYLDLSNNSINGFIPASFGNMSNLAFLFLYENQLASSVPEEIGYLRSLNVLDLSENALNGSIPASFGNLNNLSRLNLVNNQLSGSIPEEIGYLRSLNVLDLSENALNGSIPASFGNLNNLSRLNLVNNQLSGSIPEEIGYLRSLNDLGLSENALNGSIPASLGNLNNLSMLYLYNNQLSGSIPEEIGYLSSLTYLSLGNNSLNGLIPASFGNMRNLQALILNDNNLIGEIPSSVCNLTSLEVLYMPRNNLKGKVPQCLGNISNLQVLSMSSNSFSGELPSSISNLTSLQILDFGRNNLEGAIPQCFGNISSLEVFDMQNNKLSGTLPTNFSIGCSLISLNLHGNELEDEIPRSLDNCKKLQVLDLGDNQLNDTFPMWLGTLPELRVLRLTSNKLHGPIRSSRAEIMFPDLRIIDLSRNAFSQDLPTSLFEHLKGMRTVDKTMEEPSYESYYDDSVVVVTKGLELEIVRILSLYTVIDLSSNKFEGHIPSVLGDLIAIRILNVSHNALQGYIPSSLGSLSILESLDLSFNQLSGEIPQQLASLTFLEFLNLSHNYLQGCIPQGPQFRTFESNSYEGNDGLRGYPVSKGCGKDPVSEKNYTVSALEDQESNSEFFNDFWKAALMGYGSGLCIGISIIYILISTGNLRWLARIIEELEHKIIMQRRKKQRGQRNYRRRNNRF	75%
